From FireProtDB (doi:10.1093/protein/9.5.425) come the findings set out here.

The conditions of this data set: Escherichia coli (strain K12); pH 9; 50 °C; Thermal; DSC; Sodium tetraborate 1 mM; reversible: yes; whole UniProt chain shown.

B1: Tryptophan synthase alpha chain wild type, P0A877 (protein)
chain: MERYESLFAQLKERKEGAFVPFVTLGDPGIEQSLKIIDTLIEAGADALELGIPFSDPLADGPTIQNATLRAFAAGVTPAQCFEMLALIRQKHPTIPIGLLMYANLVFNKGIDEFYAQCEKVGVDSVLVADVPVEESAPFRQAALRHNVAPIFICPPNADDDLLRQIASYGRGYTYLLSRAGVTGAENRAALPLNHLVAKLKEYNAAPPLQGFGISAPDQVKAAIDAGAAGAISGSAIVKIIEQHINEPEKMLAALKVFVQPMKAATRS
For B1, the “heat capacity change of unfolding” value amounted to 4.81 kcal/mol/K and the unfolding free energy was found to be 1.17 kcal/mol.
